# Experimental data: patent US20230242635A1 (published 2023)
# Where a chain is given by its changes, count along the chain named. In names and notes the source's numbering stands.
# B1: caninized anti-IL31 antibody 11E12 (mAb1 of Table 5), canine IgGB, WT2 (antibody, part only; not given: light chain, part only)
# heavy: EVQLVQSGAEVKKPGASVKVSCKTSGYTFKYYDINWVRQAPGAGLDWMGWIFPGDGGTKYNETFKGRVTLTADTSTSTAYMELSSLRAGDIAVYYCARGGTSVIRDAMDYWGQGTLVTVSSASTTAPSVFPLAPSCGSTSGSTVALACLVSGYFPEPVTVSWNSGSLTSGVHTFPSVLQSSGLYSLSSMVTVPSSRWPSETFTCNVAHPASKTKVDKPVPKRENGRVPRPPDCPKCPAPEMLGGPSVFIFPPKPKDTLLIARTPEVTCVVVDLDPEDPEVQISWFVDGKQMQTAKTQPREEQFNGTYRVVSVLPIGHQDWLKGKQFTCKVNNKALPSPIERTISKARGQAHQPSVYVLPPSREELSKNTVSLTCLIKDFFPPDIDVEWQSNGQQEPESKYRTTPPQLDEDGSYFLYSKLSVDKSRWQRGDTFICAVMHEALHNHYTQESLSHSPGK
# B2: caninized anti-NGF antibody ZTS-841 (mAb2 of Table 4), canine IgGC, WT (antibody, from a related filing, part only)
# heavy: EVQLVESGGDLVKPGGSLRLSCVASGFTFSSHGMHWVRQSPGKGLQWVAVINSGGSSTYYTDAVKGRFTISRDNAKNTVYLQMNSLRAEDTAMYYCAKESVGGWEQLVGPHFDYWGQGTLVIVSSASTTAPSVFPLAPSCGSQSGSTVALACLVSGYIPEPVTVSWNSVSLTSGVHTFPSVLQSSGLYSLSSMVTVPSSRWPSETFTCNVAHPATNTKVDKPVAKECECKCNCNNCPCPGCGLLGGPSVFIFPPKPKDILVTARTPTVTCVVVDLDPENPEVQISWFVDSKQVQTANTQPREEQSNGTYRVVSVLPIGHQDWLSGKQFKCKVNNKALPSPIEEIISKTPGQAHQPNVYVLPPSRDEMSKNTVTLTCLVKDFFPPEIDVEWQSNGQQEPESKYRMTPPQLDEDGSYFLYSKLSVDKSRWQRGDTFICAVMHEALHNHYTQISLSHSPGK
# VL: QSVLTQPTSVSGSLGQRVTISCSGSTNNIGILGASWYQLFPGKAPKLLVYGNGNRPSGVPDRFSGADSGDSVTLTITGLQAEDEADYYCQSFDTTLGAHVFGGGTHLTVL
# B3: caninized anti-NGF antibody ZTS-841 (mAb2 of Table 4), canine IgGD, WT (antibody, from a related filing, part only)
# heavy: EVQLVESGGDLVKPGGSLRLSCVASGFTFSSHGMHWVRQSPGKGLQWVAVINSGGSSTYYTDAVKGRFTISRDNAKNTVYLQMNSLRAEDTAMYYCAKESVGGWEQLVGPHFDYWGQGTLVIVSSASTTAPSVFPLAPSCGSTSGSTVALACLVSGYFPEPVTVSWNSGSLTSGVHTFPSVLQSSGLYSLSSTVTVPSSRWPSETFTCNVVHPASNTKVDKPVPKESTCKCISPCPVPESLGGPSVFIFPPKPKDILRITRTPEITCVVLDLGREDPEVQISWFVDGKEVHTAKTQPREQQFNSTYRVVSVLPIEHQDWLTGKEFKCRVNHIGLPSPIERTISKARGQAHQPSVYVLPPSPKELSSSDTVTLTCLIKDFFPPEIDVEWQSNGQPEPESKYHTTAPQLDEDGSYFLYSKLSVDKSRWQQGDTFTCAVMHEALQNHYTDLSLSHSPGK
# VL: B2 VL
# B4: caninized anti-IL31 antibody 34D03 (mAb1), canine IgGB, N434A (antibody)
# chain 1: EVQLVESGGDLVKPGGSLRLSCVASGFTFSNYGMSWVRQAPGKGLQWVATISYGGSYTYYPDNIKGRFTISRDNAKNTLYLQMNSLRAEDTAMYYCVRGYGYDTMDYWGQGTLVTVSSASTTAPSVFPLAPSCGSTSGSTVALACLVSGYFPEPVTVSWNSGSLTSGVHTFPSVLQSSGLYSLSSMVTVPSSRWPSETFTCNVAHPASKTKVDKPVPKRENGRVPRPPDCPKCPAPEMLGGPSVFIFPPKPKDTLLIARTPEVTCVVVDLDPEDPEVQISWFVDGKQMQTAKTQPREEQFNGTYRVVSVLPIGHQDWLKGKQFTCKVNNKALPSPIERTISKARGQAHQPSVYVLPPSREELSKNTVSLTCLIKDFFPPDIDVEWQSNGQQEPESKYRTTPPQLDEDGSYFLYSKLSVDKSRWQRGDTFICAVMHEALHAHYTQESLSHSPGK
# chain 2: EIVMTQSPASLSLSQEEKVTITCKASQSVSFAGTGLMHWYQQKPGQAPKLLIYRASNLEAGVPSRFSGSGSGTDFSFTISSLEPEDVAVYYCQQSREYPWTFGQGTKLEIK
# B5: caninized anti-IL31 antibody 34D03 (mAb1), canine IgGB, N434G (antibody)
# chain 1: B4 chain 1 with A440G
# chain 2: B4 chain 2
# B6: caninized anti-IL31 antibody 34D03 (mAb1), canine IgGB, N434F (antibody)
# chain 1: B4 chain 1 with A440F
# chain 2: B4 chain 2
# Target: canine FcRn complex (FcRn-α subunit and β-microglobulin), biotin labeled by BirA, captured on SA chip (Example 5) (canine)
# Assay: SPR (Biacore), biotinylated FcRn captured on SA chip, IgG flowed, pH 6, 15 C
row,Binder,Kd [nM]
1,B1,40
2,B2,52
3,B3,71

# Target: T1, canine FcRn complex (FcRn-α subunit and β-microglobulin), biotin labeled by BirA, captured on SA chip … (canine, UniProt A0A8I3PFR8 25-296, biotin label by BirA enzymatic biotinylation (BAP tag))
# Assay: as above
# T1 sequence (A0A8I3PFR8 entry or part of it, one chain of several): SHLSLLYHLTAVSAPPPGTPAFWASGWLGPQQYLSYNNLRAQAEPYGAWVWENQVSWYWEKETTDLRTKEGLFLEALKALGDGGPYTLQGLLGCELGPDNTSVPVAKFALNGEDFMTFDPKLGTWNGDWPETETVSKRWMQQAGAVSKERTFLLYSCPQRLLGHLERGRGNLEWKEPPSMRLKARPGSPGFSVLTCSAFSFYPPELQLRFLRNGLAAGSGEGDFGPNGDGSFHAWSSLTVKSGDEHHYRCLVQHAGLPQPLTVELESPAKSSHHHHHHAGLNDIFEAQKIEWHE
row,Binder,Kd [nM]
1,B4,139
2,B5,118
3,B6,30.7

# Target: T1, canine FcRn complex (FcRn-α subunit and …)
# Assay: SPR (Biacore), biotinylated FcRn captured on SA chip, IgG flowed, pH 7.4, 15 C
row,Binder,Kd [nM]
1,B4,175
2,B5,26000
3,B6,33700
